Experimental findings from patent US20220195063A1 (BYONDIS B V, published 2022) are described below.

Assay [1] concerns the target human SIRPαBIT expressed on cells (human) (UniProt P78324). Put plainly: flow cytometry, U937 cells.
Assay [2] has the same target. Kind of assay: flow cytometry, ExpiCHO-S cells.
The target of assay [3] is human SIRPαBIT (huSIRPαBIT), protein antigen (human) (UniProt P78324). Put plainly: SPR, biotinylated antigen captured, 25 C. (In general: In SPR one partner is held on a chip, and binding of the other changes the refractive index at the surface.)
human SIRPαBIT (huSIRPαBIT), protein antigen (human), sequence (P78324 31-370): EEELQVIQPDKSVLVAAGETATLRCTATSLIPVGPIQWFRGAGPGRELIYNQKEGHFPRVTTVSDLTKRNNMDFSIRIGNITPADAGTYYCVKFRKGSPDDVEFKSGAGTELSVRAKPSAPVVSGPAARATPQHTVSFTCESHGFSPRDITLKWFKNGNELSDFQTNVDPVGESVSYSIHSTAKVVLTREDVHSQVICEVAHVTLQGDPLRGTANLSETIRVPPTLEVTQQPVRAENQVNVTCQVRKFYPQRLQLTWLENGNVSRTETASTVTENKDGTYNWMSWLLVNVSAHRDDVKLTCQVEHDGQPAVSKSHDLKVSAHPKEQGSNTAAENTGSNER
In assay [4] the target is T1, human SIRPα1 expressed on cells (human, UniProt P78324 31-504).
T1 construct: whole, on cells; also called ExpiCHO-S (huSIRPα1); CHO cells expressing huSIRPα1
T1 sequence (P78324 other isoform, or with tags, fused parts or gaps limits assumed): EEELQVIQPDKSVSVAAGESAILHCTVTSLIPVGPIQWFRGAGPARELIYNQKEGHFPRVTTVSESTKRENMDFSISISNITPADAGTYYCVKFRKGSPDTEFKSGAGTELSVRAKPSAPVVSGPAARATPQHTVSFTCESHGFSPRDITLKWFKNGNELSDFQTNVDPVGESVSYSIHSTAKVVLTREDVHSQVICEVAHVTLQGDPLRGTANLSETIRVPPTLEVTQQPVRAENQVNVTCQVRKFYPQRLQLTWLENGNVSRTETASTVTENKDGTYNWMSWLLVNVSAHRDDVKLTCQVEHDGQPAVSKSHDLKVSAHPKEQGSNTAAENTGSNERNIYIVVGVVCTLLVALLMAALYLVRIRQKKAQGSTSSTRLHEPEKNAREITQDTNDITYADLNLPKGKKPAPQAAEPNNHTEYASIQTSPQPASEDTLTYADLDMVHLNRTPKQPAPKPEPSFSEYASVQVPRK
Put plainly: flow cytometry, ExpiCHO-S cells. An excerpt:
(§1) Flow Cytometry: U937 cells endogenously expressing human SIRPαBIT antigen and cells derived from a non-engineered subclone that has been screened and isolated from CHO-S Chinese hamster ovary cells (ExpiCHO-S) cells expressing human SIRPα₁, SIRPαBIT or cySIRPα antigen (100,000 cells/well in a 96-well plate) were washed three times with ice-cold FACS buffer (1×PBS (LONZA) containing 0.2% v/w BSA (Sigma-Aldrich, St. Louis, Mo.) and 0.02% v/w NaN₃ (Sigma-Aldrich), followed by the addition of a concentration range of each primary mAb (50 μL/well) diluted in ice-cold FACS buffer. After an incubation time of 30 min at 4° C., the cells were washed three times with ice-cold FACS buffer and 50 μL/well secondary mAb (AffiniPure F(ab′)₂ fragment Goat-anti-human IgG-APC, 1:6,000 dilution, Jackson Immuno Research) was added. After 30 min at 4° C., cells were washed twice and resuspended in 150 μL FACS buffer. Fluorescence intensities were determined by flow cytometry (BD FACSVerse, Franklin Lakes, N.J.) and indicated as the median fluorescence intensity (MFI-Median) for U937 cells and ExpiCHO-S cells. Curves were fitted by nonlinear regression using the sigmoidal dose-response equation with variable slope (four parameters) in GraphPad Prism (version 7.02 for Windows, GraphPad, San Diego, Calif.). EC₅₀ values were calculated as the concentration in μg/mL that gives a response half way between bottom and top of the curve, when using a 4-parameter logistic fit.
A general note: In flow cytometry, cells or beads pass a laser one at a time.

Assay [5] addresses T2, cynomolgus SIRPα expressed on cells (cynomolgus monkey, UniProt A0A2K5VYQ9 31-507).
T2 construct: whole, on cells; also called ExpiCHO-S (cySIRPα)
T2 sequence: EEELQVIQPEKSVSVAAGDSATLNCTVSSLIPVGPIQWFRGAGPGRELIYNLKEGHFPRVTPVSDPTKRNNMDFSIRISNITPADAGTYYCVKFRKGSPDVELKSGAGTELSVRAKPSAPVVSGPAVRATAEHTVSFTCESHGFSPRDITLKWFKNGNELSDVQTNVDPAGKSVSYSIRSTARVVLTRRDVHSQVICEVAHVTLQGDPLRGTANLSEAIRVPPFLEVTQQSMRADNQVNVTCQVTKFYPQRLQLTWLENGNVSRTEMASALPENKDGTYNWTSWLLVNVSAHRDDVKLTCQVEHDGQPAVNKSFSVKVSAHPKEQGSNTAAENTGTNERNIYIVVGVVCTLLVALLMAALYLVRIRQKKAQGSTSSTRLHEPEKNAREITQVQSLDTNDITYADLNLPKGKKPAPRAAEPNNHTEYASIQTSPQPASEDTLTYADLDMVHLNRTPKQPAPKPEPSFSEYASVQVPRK
Put plainly: flow cytometry, ExpiCHO-S cells.
Description: as §1

Assay [6] deals with T3, human SIRPα1 (huSIRPα1), protein antigen (human, UniProt P78324 31-370, limits assumed, biotinylated in the SPR assay).
T3 construct: Coated on the plate in ELISA, biotinylated and captured in SPR; also called v2
T3 sequence (P78324 other isoform, or with tags, fused parts or gaps limits assumed): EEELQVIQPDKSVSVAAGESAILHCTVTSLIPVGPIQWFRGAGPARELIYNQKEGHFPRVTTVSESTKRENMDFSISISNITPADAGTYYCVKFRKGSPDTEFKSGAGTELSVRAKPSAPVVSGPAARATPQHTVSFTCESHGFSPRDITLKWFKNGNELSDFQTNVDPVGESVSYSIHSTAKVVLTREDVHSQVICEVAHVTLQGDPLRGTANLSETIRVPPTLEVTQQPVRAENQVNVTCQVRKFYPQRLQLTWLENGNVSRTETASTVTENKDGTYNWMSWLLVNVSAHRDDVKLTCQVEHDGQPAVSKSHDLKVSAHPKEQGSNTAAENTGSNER
Put plainly: SPR, biotinylated antigen captured, 25 C. The protocol: (§2) Surface Plasmon Resonance (SPR) assay: Affinity analysis was performed by single cycle kinetics analysis on a Surface Plasmon Resonance apparatus (Biacore T200 system, GE Life Sciences) at 25° C. Biotinylated SIRP antigens were captured on the surface of a chip suitable for biotinylated molecules (Sensor Chip CAP, GE Life Sciences) by injecting 5 μg/ml of the SIRP antigen in running buffer (10 mM HEPES buffer at pH 7.4 with 150 mM NaCl, 3 mM EDTA and 0.005% v/v polyoxyethylene (20) sorbitan monolaurate (Surfactant P20) for 60 sec at 10 μL/min after injection of a streptavidin conjugate (20× diluted biotin CAPture reagent, GE Life Sciences) for 60 sec at 10 μl/min. Baseline stabilization was set at 1 min after which five increasing concentrations of an anti-SIRP antibody in running buffer (10 mM HEPES buffer at pH 7.4 with 150 mM NaCl, 3 mM EDTA and 0.005% v/v polyoxyethylene (20) sorbitan monolaurate) were injected. For each step an association time of 150 sec was used, followed by a dissociation time of 1200 sec at the highest concentration only, all at a flow rate of 30 μL/min. Regeneration was performed with 6 M guanidine-HCl, 0.25 M NaOH solution (60 sec with flow rate of 30 μL/min). Double blank subtraction was performed on the observed sensorgrams using a non anti-SIRP (blank) immobilized reference flow channel and running buffer injection. Sensorgrams were fitted with a 1:1 Langmuir model for all tested anti-SIRP antibodies. The kinetic parameters (kₐ, kd and KD) were calculated using the Biacore T200 evaluation software (v3.1).

For assay [7], the target named is T4, human SIRPγ (huSIRPγ) (human, UniProt Q9P1W8 29-360, limits assumed, biotinylated in the SPR assay).
T4 construct: Coated on the plate in ELISA, biotinylated and captured in SPR
T4 sequence (Q9P1W8 29-360 limits assumed): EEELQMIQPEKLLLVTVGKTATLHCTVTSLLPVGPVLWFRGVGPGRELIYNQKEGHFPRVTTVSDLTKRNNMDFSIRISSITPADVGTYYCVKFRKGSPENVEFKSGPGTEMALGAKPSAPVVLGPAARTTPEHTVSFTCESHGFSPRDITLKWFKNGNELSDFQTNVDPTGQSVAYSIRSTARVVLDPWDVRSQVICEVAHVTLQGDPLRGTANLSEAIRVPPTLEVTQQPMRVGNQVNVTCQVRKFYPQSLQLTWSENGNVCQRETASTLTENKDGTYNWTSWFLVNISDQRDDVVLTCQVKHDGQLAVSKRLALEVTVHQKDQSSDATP
Kind of assay: SPR, biotinylated antigen captured, 25 C. The protocol:
as §2

For assay [8], the target named is human SIRPαBIT (huSIRPαBIT), protein antigen (human) (UniProt P78324). Put plainly: ELISA, antigen coated. In general terms: An ELISA detects its analyte on a solid surface through an enzyme-linked reagent.
Assay [9] addresses human SIRPβ1v1 (huSIRPβ1v1) (human) (UniProt O00241). Kind of assay: ELISA, antigen coated.
Assay [10] addresses T3, human SIRPα1 (huSIRPα1), protein antigen. Kind of assay: ELISA, antigen coated.
Assay [11] has as its target T5, human SIRPβ1v2 (huSIRPβ1v2) (human, UniProt Q5TFQ8 30-371).
T5 construct: Coated on the plate in ELISA; Only the Ensembl protein number is printed; also called huSIRPß1v2
Kind of assay: ELISA, antigen coated.

The target in assay [12] is T6, cynomolgus SIRPα (cySIRPα), protein antigen (cynomolgus monkey, UniProt A0A2K5VYQ9 31-369).
T6 construct: Coated on the plate in ELISA
T6 sequence: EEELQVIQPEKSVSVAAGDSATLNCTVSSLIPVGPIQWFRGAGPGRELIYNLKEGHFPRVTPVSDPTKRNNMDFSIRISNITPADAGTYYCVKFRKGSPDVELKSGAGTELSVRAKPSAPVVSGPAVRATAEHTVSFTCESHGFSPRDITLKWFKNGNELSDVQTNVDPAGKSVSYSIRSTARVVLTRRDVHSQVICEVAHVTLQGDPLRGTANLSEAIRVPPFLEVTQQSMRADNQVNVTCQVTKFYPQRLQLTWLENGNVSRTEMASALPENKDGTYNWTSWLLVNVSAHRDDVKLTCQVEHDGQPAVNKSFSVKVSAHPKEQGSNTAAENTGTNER
Put plainly: ELISA, antigen coated.

In assay [13] the target is T4, human SIRPγ (huSIRPγ). Kind of assay: ELISA, antigen coated; ELISA (Table 2); finite EC50, below the 100,000 ng/ml cap. The protocol:
ELISA assay: Solutions of huSIRPα₁, huSIRPαBIT, huSIRPβ₁ᵥ₁, huSIRPβ₁ᵥ₂, huSIRPγ and cySIRPα in phosphate buffered saline (PBS) were each added to a multiple well black polystyrene plate for ELISA and allowed to adhere for 1 h at RT. Unbound protein was removed with three washing steps using standard washing buffer. Subsequently, blocking buffer was added to the wells. After 1 h incubation at RT, the wells were washed three times with standard washing buffer. The antibodies in buffer at various concentrations were added to the wells and incubated at RT for 1 h. Unbound antibodies were removed with three washing steps using standard washing buffer. Goat anti human IgG (Fab′)₂:horse radish peroxidase (HRP) in buffer was added to the wells and incubated at RT for 1 h. 3,3′,5,5′-Tetramethylbenzidine (TMB) was added and after sufficient colour development HCl was added. Absorbance was read at 450 nm/620 nm.

Numbering of substitutions follows the chain as printed.

human SIRPαBIT expressed on cells (human), sequence (P78324 31-504): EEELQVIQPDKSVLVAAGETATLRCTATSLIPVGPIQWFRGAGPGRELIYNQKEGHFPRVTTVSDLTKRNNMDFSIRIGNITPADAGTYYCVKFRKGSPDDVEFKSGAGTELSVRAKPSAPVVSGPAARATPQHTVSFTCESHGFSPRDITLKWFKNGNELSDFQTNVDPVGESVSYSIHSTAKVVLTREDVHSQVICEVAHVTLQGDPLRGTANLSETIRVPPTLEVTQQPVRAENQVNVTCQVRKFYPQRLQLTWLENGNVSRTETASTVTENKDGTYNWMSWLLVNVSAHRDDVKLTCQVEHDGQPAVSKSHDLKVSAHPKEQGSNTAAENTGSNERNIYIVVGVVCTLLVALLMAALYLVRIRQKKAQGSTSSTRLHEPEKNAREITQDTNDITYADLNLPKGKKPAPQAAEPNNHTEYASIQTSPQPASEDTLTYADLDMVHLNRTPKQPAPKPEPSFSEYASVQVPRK
human SIRPβ1v1 (huSIRPβ1v1) (human), sequence (O00241 30-371): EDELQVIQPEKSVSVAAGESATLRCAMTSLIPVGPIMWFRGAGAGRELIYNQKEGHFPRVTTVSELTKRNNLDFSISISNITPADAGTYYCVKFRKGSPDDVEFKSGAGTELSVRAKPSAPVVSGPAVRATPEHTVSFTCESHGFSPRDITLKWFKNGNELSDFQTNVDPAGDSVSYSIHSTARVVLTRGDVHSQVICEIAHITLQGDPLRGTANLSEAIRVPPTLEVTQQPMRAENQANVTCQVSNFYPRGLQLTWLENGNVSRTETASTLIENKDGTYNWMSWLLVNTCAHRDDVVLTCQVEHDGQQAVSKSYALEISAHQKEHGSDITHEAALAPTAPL
T5 sequence (Q5TFQ8 30-371 limits assumed): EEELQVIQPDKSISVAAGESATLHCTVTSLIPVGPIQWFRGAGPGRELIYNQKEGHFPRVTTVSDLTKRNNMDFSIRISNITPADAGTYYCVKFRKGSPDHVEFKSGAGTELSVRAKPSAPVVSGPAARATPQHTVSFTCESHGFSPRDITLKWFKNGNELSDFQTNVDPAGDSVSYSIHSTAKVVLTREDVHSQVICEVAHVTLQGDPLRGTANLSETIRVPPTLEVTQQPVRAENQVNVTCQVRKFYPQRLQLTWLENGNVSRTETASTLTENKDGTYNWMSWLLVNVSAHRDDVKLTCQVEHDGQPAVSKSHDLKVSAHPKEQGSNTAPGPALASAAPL

B1: anti-SIRPα antibody 13 humanized (antibody, human IgG1, V domains shown)
VH: RQLVESGGGLVQPGGSLRLSCTASGFSLSSHGISWVRQAPGKGLEYIGTIGTGVITYFASWAKGRFTGSKTSSTAYMELSSLRSEDTAVYFCARGSAWNDPFDPWGQGTLVTVSS
VL: AIQMTQSPSSLSASVGDRVTITCQASQSVYGNNDLAWYQQKPGKAPKLLIYLASTLATGVPSRFSGSGSGTDFTLTISSLQPEDFATYYCLGGGDDEADNVFGGGTKVEIKR
notes: Humanized, human IgG1 LALA / kappa
Broadly, the EC50 is the concentration needed to bring the measured effect to its halfway point. Lower therefore signals an effect from little substance. In general, Kd refers to the free concentration of one partner at which half of the binding sites on the other are occupied at equilibrium, for simple one-to-one binding. Low readings indicate higher affinity, high ones lower affinity. As to B1, the EC50 turned out to be 0.14 µg/mL in [1], 0.23 µg/mL in [2], 0.36 µg/mL in assay [4] and 0.44 µg/mL in assay [5]. The Kd was 0.012 nM in assay [3] and less than 0.01 nM in [6]. In addition, in [7], the binding result is reported as “no binding”.

B2: anti-SIRPα antibody 14 humanized (antibody, human IgG1, V domains shown)
VH: B1 VH
VL: B1 VL with A1D, Q3E, L11V, I21L, K44Q
notes: as for B1
B2: the EC50 came out at 0.22 µg/mL in assay [1], 0.29 µg/mL in assay [2], 0.37 µg/mL in assay [4] and 0.38 µg/mL in assay [5]. The Kd in assay [3] is 0.089 nM; in assay [6], less than 0.01 nM. For the same molecule, in assay [7], the binding result is on record as “no binding”.

B3: anti-SIRPα antibody 3 (antibody, human IgG1, kappa, L234A L235A, V domains shown)
VH: QSVEESGGRLVTPGTPLTLACTVSGFSLISYYISWVRQAPEKGLEYIGIINIGGGASYASWAKGRFTISKTSTTVDLKITSPTPEDTATYFCAMSYGMDTGAFNIWGPGTLVTVSL
VL: AQVLTQTPASVSAAVGGTVTISCQSSESVYKNNFLSWYQQKPGKPPKLLIYGASTLASGVPSRFKGSGSGTQFTLTISDLESDDAATYFCQGGYRTDIYPFGGGTEVVVKR
notes: Rabbit variable regions on human IgG1 LALA / kappa
On to B3, for which the EC50 in [8] is 0.024 µg/mL; in assay [9], more than 100 µg/mL; in assay [1], 0.22 µg/mL; in assay [10], 0.015 µg/mL; in [11], 0.089 µg/mL; in assay [12] it was 0.036 µg/mL. Further, a half-maximal effect in [13] (EC50) was put at 5.22 µg/mL.
